Source: the supplement of paper PMC10065799, “High-throughput profiling of sequence recognition by tyrosine kinases and SH2 domains using bacterial peptide display” (eLife, 2023)

What follows are sequences tested against MERTK (UniProt Q12866) (assay: phosphorylation enrichment, bacterial display (enrichment ratio); higher = better substrate or ligand; peptides without Tyr show the background).
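Further: 11-residue human phosphosite peptides and single-mutation variants displayed on the E. coli surface, counted by deep sequencing, each peptide's frequency after selection divided by its frequency in the unselected input library; frequency after pTyr selection over input frequency; kinase dosed for 20-30% of maximal phosphorylation in three min.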

MERTK, sequence (Q12866 whole entry, looked up): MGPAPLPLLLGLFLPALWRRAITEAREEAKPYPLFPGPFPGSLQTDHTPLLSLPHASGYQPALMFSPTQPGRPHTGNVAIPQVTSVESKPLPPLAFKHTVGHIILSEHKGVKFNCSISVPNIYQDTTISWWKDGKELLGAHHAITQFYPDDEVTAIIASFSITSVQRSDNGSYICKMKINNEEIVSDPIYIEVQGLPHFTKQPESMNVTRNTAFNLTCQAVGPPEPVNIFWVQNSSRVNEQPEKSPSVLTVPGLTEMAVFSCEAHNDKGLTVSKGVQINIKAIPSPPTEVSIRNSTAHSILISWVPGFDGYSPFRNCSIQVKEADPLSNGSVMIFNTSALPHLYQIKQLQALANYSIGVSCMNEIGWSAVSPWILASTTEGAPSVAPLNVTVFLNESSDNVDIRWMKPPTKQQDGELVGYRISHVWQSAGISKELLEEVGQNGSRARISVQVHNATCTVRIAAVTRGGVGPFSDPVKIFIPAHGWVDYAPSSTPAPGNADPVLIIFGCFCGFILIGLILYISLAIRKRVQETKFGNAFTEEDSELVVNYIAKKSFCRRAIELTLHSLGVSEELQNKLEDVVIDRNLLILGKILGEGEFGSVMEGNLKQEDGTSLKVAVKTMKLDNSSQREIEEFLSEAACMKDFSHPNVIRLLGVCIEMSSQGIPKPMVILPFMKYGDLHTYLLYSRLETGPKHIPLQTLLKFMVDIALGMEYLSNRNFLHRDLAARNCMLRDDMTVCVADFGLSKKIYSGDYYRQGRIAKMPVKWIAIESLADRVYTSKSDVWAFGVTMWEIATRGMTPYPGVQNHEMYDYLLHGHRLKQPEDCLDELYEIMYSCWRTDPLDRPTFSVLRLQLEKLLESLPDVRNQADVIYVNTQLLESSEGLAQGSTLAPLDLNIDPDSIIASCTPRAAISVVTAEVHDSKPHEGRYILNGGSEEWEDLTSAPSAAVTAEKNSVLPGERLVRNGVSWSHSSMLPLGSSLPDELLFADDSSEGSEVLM

Going from IWGKKYPTCNS [PTPRZ1_Y53_N48I] to IINENYDYLKV [NUP98_Y1664_G1669V], the phosphorylation enrichment rises from 0.407 to 0.919.

First: PTTKTYFPRFD [HBA1_Y43_H46R]
Second: FQQLFYLLQIN [IQGAP2_Y890_T894I_YF]
The phosphorylation enrichment of the first is lower: 0.373 for the first, 0.611 for the second.

First: AVHPGYGFLSE [PCCA_Y143]
Second: PNATLYKMTSI [SERPINA7_Y40_S43T]
The phosphorylation enrichment of the first is lower: 0.527 for the first, 0.918 for the second.

Going from EYKKKYSDADI [CKAP5_Y1860] to PQGVSYIYTID [DCX_Y103_R102S], the phosphorylation enrichment rises from 0.383 to 3.15.

First: VDGSLYKTHPQ [HK1_Y417]
Second: KKLAEYGPQGK [CLCA1_Y147_R152K]
The phosphorylation enrichment of the first is higher: 0.378 for the first, 0.273 for the second.

Compared with SDPIIYTLENV [ADGRE1_Y534_I539V], DVSKEYGHLLP [HRC_Y99] is lower in phosphorylation enrichment: 1.09 for the first, 0.59 for the second.

Going from DKVFTYIFIME [SCN4A_Y1074] to IGEGTYGQVYK [CDK13_Y716], the phosphorylation enrichment rises from 0.41 to 0.714.

First: TNEYEYDELIV [TGM1_Y136_D132N]
Second: LTQRTYMSENA [GPAA1_Y49]
The phosphorylation enrichment of the first is higher: 0.525 for the first, 0.47 for the second.

First: QMRLRYLAAEE [CEP120_Y884]
Second: RVSSVYTRSTG [CCR5_Y339_A335V]
The phosphorylation enrichment of the first is lower: 0.423 for the first, 0.665 for the second.

First: AEFGLYGAMVR [VSX2_Y222_YF]
Second: ADQLDYIKALN [HPRT1_Y81_L78Q]
The phosphorylation enrichment of the first is higher: 0.674 for the first, 0.441 for the second.

Going from TRTDAYAVSSF to TLNHQYDYTFD [CSNK1A1_Y292], the phosphorylation enrichment rises from 0.388 to 0.453.

Compared with FGVTLYPNSRE [MEP1A_Y472], DQVEQYNKELE [LMNA_Y259_K260N] is lower in phosphorylation enrichment: 0.714 for the first, 0.418 for the second.

Going from HEHKGYNANFC [TGFB2_Y341_P338H] to LGSNGCKKLLK [SEPSECS_Y334_Y334C], the phosphorylation enrichment rises from 0.612 to 0.866.

First: KNGSNYVVKGN [KIT_Y823_D820G]
Second: WEPFGYAVTRC [PTPRT_Y412]
The phosphorylation enrichment of the first is higher: 0.466 for the first, 0.345 for the second.

Going from RSFLSYFTSHV [NEFL_Y442_P440L_YF] to ADELEYSRTGL [MMUT_Y287_G284E], the phosphorylation enrichment falls from 0.826 to 0.407.

Compared with IIGNGYYFHVF [MYBPC3_Y1135_R1138H], YLQEIHNSNNQ [FGG_Y140_Y140H] is higher in phosphorylation enrichment: 0.288 for the first, 0.484 for the second.

Sequence EQPNPYMVLDI [ROCK2_Y1197_S1194P] has a phosphorylation enrichment of 2.06.

The sequences below were run on c-Src in the same assay as above.

Going from IWGKKYPTCNS [PTPRZ1_Y53_N48I] to IINENYDYLKV [NUP98_Y1664_G1669V], the phosphorylation enrichment rises from 0.397 to 0.625.

First: PTTKTYFPRFD [HBA1_Y43_H46R]
Second: FQQLFYLLQIN [IQGAP2_Y890_T894I_YF]
The phosphorylation enrichment of the first is lower: 0.421 for the first, 0.639 for the second.

First: AVHPGYGFLSE [PCCA_Y143]
Second: PNATLYKMTSI [SERPINA7_Y40_S43T]
The phosphorylation enrichment of the first is lower: 0.47 for the first, 1.04 for the second.

First: EYKKKYSDADI [CKAP5_Y1860]
Second: PQGVSYIYTID [DCX_Y103_R102S]
The phosphorylation enrichment of the first is lower: 0.371 for the first, 6.93 for the second.

Compared with VDGSLYKTHPQ [HK1_Y417], KKLAEYGPQGK [CLCA1_Y147_R152K] is lower in phosphorylation enrichment: 0.385 for the first, 0.348 for the second.

Going from SDPIIYTLENV [ADGRE1_Y534_I539V] to DVSKEYGHLLP [HRC_Y99], the phosphorylation enrichment falls from 4.92 to 0.836.

Going from DKVFTYIFIME [SCN4A_Y1074] to IGEGTYGQVYK [CDK13_Y716], the phosphorylation enrichment rises from 0.533 to 9.38.

Going from TNEYEYDELIV [TGM1_Y136_D132N] to LTQRTYMSENA [GPAA1_Y49], the phosphorylation enrichment falls from 0.981 to 0.429.

Compared with QMRLRYLAAEE [CEP120_Y884], RVSSVYTRSTG [CCR5_Y339_A335V] is higher in phosphorylation enrichment: 0.647 for the first, 0.853 for the second.

Compared with AEFGLYGAMVR [VSX2_Y222_YF], ADQLDYIKALN [HPRT1_Y81_L78Q] is lower in phosphorylation enrichment: 3.61 for the first, 0.408 for the second.

Compared with TRTDAYAVSSF, TLNHQYDYTFD [CSNK1A1_Y292] is higher in phosphorylation enrichment: 0.443 for the first, 1.27 for the second.

Going from FGVTLYPNSRE [MEP1A_Y472] to DQVEQYNKELE [LMNA_Y259_K260N], the phosphorylation enrichment falls from 0.541 to 0.459.

Going from HEHKGYNANFC [TGFB2_Y341_P338H] to LGSNGCKKLLK [SEPSECS_Y334_Y334C], the phosphorylation enrichment rises from 0.542 to 0.663.

Going from KNGSNYVVKGN [KIT_Y823_D820G] to WEPFGYAVTRC [PTPRT_Y412], the phosphorylation enrichment falls from 0.482 to 0.382.

Going from RSFLSYFTSHV [NEFL_Y442_P440L_YF] to ADELEYSRTGL [MMUT_Y287_G284E], the phosphorylation enrichment falls from 0.879 to 0.464.

Going from IIGNGYYFHVF [MYBPC3_Y1135_R1138H] to YLQEIHNSNNQ [FGG_Y140_Y140H], the phosphorylation enrichment rises from 0.362 to 0.414.

For EQPNPYMVLDI [ROCK2_Y1197_S1194P], the phosphorylation enrichment was 3.03.

These sequences were tested against Fyn (UniProt P06241) in the same assay as above.
Fyn, sequence (P06241 whole entry, looked up): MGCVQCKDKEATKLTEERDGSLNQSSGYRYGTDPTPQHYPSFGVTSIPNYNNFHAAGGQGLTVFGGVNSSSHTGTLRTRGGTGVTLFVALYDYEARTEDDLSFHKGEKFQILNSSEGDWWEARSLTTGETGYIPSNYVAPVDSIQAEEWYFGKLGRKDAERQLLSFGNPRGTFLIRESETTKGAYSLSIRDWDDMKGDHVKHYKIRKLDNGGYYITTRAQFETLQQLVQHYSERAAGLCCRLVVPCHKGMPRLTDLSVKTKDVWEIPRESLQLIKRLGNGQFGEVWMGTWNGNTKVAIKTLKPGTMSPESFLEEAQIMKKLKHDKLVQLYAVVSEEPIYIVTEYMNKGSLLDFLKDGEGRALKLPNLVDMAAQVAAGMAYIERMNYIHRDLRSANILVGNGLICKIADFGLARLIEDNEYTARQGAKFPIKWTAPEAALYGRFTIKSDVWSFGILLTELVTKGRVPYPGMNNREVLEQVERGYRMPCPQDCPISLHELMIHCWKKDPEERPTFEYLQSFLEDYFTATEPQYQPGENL

Compared with IWGKKYPTCNS [PTPRZ1_Y53_N48I], IINENYDYLKV [NUP98_Y1664_G1669V] is higher in phosphorylation enrichment: 0.369 for the first, 0.538 for the second.

First: PTTKTYFPRFD [HBA1_Y43_H46R]
Second: FQQLFYLLQIN [IQGAP2_Y890_T894I_YF]
The phosphorylation enrichment of the first is lower: 0.319 for the first, 0.541 for the second.

First: AVHPGYGFLSE [PCCA_Y143]
Second: PNATLYKMTSI [SERPINA7_Y40_S43T]
The phosphorylation enrichment of the first is lower: 0.487 for the first, 0.604 for the second.

First: EYKKKYSDADI [CKAP5_Y1860]
Second: PQGVSYIYTID [DCX_Y103_R102S]
The phosphorylation enrichment of the first is lower: 0.442 for the first, 10.6 for the second.

Going from VDGSLYKTHPQ [HK1_Y417] to KKLAEYGPQGK [CLCA1_Y147_R152K], the phosphorylation enrichment falls from 0.44 to 0.401.

Compared with SDPIIYTLENV [ADGRE1_Y534_I539V], DVSKEYGHLLP [HRC_Y99] is lower in phosphorylation enrichment: 7 for the first, 0.624 for the second.

Compared with DKVFTYIFIME [SCN4A_Y1074], IGEGTYGQVYK [CDK13_Y716] is higher in phosphorylation enrichment: 0.41 for the first, 13.5 for the second.

Going from TNEYEYDELIV [TGM1_Y136_D132N] to LTQRTYMSENA [GPAA1_Y49], the phosphorylation enrichment falls from 0.952 to 0.376.

Compared with QMRLRYLAAEE [CEP120_Y884], RVSSVYTRSTG [CCR5_Y339_A335V] is higher in phosphorylation enrichment: 0.845 for the first, 1.1 for the second.

First: AEFGLYGAMVR [VSX2_Y222_YF]
Second: ADQLDYIKALN [HPRT1_Y81_L78Q]
The phosphorylation enrichment of the first is higher: 5.3 for the first, 0.492 for the second.

Compared with TRTDAYAVSSF, TLNHQYDYTFD [CSNK1A1_Y292] is higher in phosphorylation enrichment: 0.419 for the first, 0.519 for the second.

Compared with FGVTLYPNSRE [MEP1A_Y472], DQVEQYNKELE [LMNA_Y259_K260N] is higher in phosphorylation enrichment: 0.432 for the first, 0.558 for the second.

First: HEHKGYNANFC [TGFB2_Y341_P338H]
Second: LGSNGCKKLLK [SEPSECS_Y334_Y334C]
The phosphorylation enrichment of the first is higher: 0.659 for the first, 0.567 for the second.

First: KNGSNYVVKGN [KIT_Y823_D820G]
Second: WEPFGYAVTRC [PTPRT_Y412]
The phosphorylation enrichment of the first is higher: 0.449 for the first, 0.402 for the second.

Going from RSFLSYFTSHV [NEFL_Y442_P440L_YF] to ADELEYSRTGL [MMUT_Y287_G284E], the phosphorylation enrichment falls from 0.642 to 0.482.

Going from IIGNGYYFHVF [MYBPC3_Y1135_R1138H] to YLQEIHNSNNQ [FGG_Y140_Y140H], the phosphorylation enrichment rises from 0.349 to 0.431.

With EQPNPYMVLDI [ROCK2_Y1197_S1194P] the phosphorylation enrichment was 2.46.

These sequences were tested against FGFR3 (UniProt P22607) in the same assay as above.
FGFR3, sequence (P22607 whole entry, looked up): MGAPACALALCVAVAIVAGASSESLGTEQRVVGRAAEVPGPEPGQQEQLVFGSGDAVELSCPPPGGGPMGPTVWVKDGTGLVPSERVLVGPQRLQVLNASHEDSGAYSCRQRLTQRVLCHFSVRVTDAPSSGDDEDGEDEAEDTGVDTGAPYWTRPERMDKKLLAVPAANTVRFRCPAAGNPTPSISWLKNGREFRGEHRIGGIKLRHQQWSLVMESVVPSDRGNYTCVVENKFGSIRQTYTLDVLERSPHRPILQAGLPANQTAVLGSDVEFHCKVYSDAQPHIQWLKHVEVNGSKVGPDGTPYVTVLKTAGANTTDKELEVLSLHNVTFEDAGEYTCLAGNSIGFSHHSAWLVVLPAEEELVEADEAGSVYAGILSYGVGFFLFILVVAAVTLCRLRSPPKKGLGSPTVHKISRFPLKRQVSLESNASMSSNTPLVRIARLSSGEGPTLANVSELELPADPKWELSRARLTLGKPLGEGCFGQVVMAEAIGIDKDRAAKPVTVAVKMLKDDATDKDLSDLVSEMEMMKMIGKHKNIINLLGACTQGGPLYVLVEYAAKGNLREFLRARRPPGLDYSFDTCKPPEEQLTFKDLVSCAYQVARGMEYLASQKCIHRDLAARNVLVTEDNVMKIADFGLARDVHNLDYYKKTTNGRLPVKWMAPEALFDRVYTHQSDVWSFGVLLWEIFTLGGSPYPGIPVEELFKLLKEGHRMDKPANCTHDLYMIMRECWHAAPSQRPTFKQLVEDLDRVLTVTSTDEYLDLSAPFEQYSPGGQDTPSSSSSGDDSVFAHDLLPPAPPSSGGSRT

First: IWGKKYPTCNS [PTPRZ1_Y53_N48I]
Second: IINENYDYLKV [NUP98_Y1664_G1669V]
The phosphorylation enrichment of the first is lower: 0.607 for the first, 1.16 for the second.

Going from PTTKTYFPRFD [HBA1_Y43_H46R] to FQQLFYLLQIN [IQGAP2_Y890_T894I_YF], the phosphorylation enrichment rises from 0.432 to 1.01.

Going from AVHPGYGFLSE [PCCA_Y143] to PNATLYKMTSI [SERPINA7_Y40_S43T], the phosphorylation enrichment falls from 1.12 to 0.668.

Going from EYKKKYSDADI [CKAP5_Y1860] to PQGVSYIYTID [DCX_Y103_R102S], the phosphorylation enrichment rises from 0.475 to 1.64.

Compared with VDGSLYKTHPQ [HK1_Y417], KKLAEYGPQGK [CLCA1_Y147_R152K] is lower in phosphorylation enrichment: 0.419 for the first, 0.295 for the second.

Compared with SDPIIYTLENV [ADGRE1_Y534_I539V], DVSKEYGHLLP [HRC_Y99] is higher in phosphorylation enrichment: 0.663 for the first, 0.833 for the second.

First: DKVFTYIFIME [SCN4A_Y1074]
Second: IGEGTYGQVYK [CDK13_Y716]
The phosphorylation enrichment of the first is higher: 1.14 for the first, 0.508 for the second.

Compared with TNEYEYDELIV [TGM1_Y136_D132N], LTQRTYMSENA [GPAA1_Y49] is lower in phosphorylation enrichment: 0.925 for the first, 0.485 for the second.

Compared with QMRLRYLAAEE [CEP120_Y884], RVSSVYTRSTG [CCR5_Y339_A335V] is higher in phosphorylation enrichment: 0.874 for the first, 0.945 for the second.

Compared with AEFGLYGAMVR [VSX2_Y222_YF], ADQLDYIKALN [HPRT1_Y81_L78Q] is lower in phosphorylation enrichment: 0.715 for the first, 0.608 for the second.

Going from TRTDAYAVSSF to TLNHQYDYTFD [CSNK1A1_Y292], the phosphorylation enrichment rises from 0.534 to 0.824.

Compared with FGVTLYPNSRE [MEP1A_Y472], DQVEQYNKELE [LMNA_Y259_K260N] is lower in phosphorylation enrichment: 0.766 for the first, 0.762 for the second.

First: HEHKGYNANFC [TGFB2_Y341_P338H]
Second: LGSNGCKKLLK [SEPSECS_Y334_Y334C]
The phosphorylation enrichment of the first is higher: 0.951 for the first, 0.868 for the second.

First: KNGSNYVVKGN [KIT_Y823_D820G]
Second: WEPFGYAVTRC [PTPRT_Y412]
The phosphorylation enrichment of the first is lower: 0.368 for the first, 0.707 for the second.

Compared with RSFLSYFTSHV [NEFL_Y442_P440L_YF], ADELEYSRTGL [MMUT_Y287_G284E] is lower in phosphorylation enrichment: 1 for the first, 0.645 for the second.

Going from IIGNGYYFHVF [MYBPC3_Y1135_R1138H] to YLQEIHNSNNQ [FGG_Y140_Y140H], the phosphorylation enrichment falls from 0.803 to 0.63.

EQPNPYMVLDI [ROCK2_Y1197_S1194P] showed a phosphorylation enrichment of 1.09.
